Measurements published in US20130315910A1 (Xencor, published 2013).

T1: human FcγRIIb receptor protein (R&D Systems) (human, UniProt P31994 46-217)
T1 construct: Bought protein injected over captured antibody in Biacore; also called CD32b
T1 sequence (looked up): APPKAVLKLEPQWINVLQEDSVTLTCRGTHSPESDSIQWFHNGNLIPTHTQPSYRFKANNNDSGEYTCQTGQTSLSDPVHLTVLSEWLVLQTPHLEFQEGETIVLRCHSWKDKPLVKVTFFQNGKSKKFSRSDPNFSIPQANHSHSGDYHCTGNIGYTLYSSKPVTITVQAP

T2: cynoFcγRIIb (Macaca fascicularis, UniProt A0A140HDP4)
T2 construct: extracellular region, C-terminal His- and GST-tag; also called cynomolgus monkey FcγRIIb
T2 sequence (receptor extracellular region): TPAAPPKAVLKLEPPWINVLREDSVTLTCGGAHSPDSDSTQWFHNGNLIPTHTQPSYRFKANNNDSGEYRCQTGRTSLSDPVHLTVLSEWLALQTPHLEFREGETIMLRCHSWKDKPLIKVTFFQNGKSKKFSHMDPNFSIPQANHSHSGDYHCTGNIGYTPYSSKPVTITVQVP

T3: mFcγRIIb (Mus musculus, UniProt P08101)
T3 construct: extracellular region, C-terminal His- and GST-tag; also called mouse FcγRII
T3 sequence (receptor extracellular region, looked up): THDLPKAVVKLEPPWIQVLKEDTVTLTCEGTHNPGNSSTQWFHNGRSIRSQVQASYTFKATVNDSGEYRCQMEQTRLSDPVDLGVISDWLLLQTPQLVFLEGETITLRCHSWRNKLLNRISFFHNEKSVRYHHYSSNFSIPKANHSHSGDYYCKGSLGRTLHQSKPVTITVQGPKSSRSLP


Key:
Test in all cases: SPR
[1] = target: T1, human FcγRIIb receptor protein (R&D …)
cynoFcγRIIb = target: T2, cynoFcγRIIb
Procedure: (§1) Variants were screened for receptor affinity using Biacore™ technology, also referred to as Biacore herein, a surface plasmon resonance (SPR) based technology for studying biomolecular interactions in real time. SPR measurements were performed using a Biacore 3000 instrument (Biacore, Piscataway, N.J.). A protein A/G (Pierce Biotechnology) CM5 biosensor chip (Biacore) was generated using a standard primary amine coupling protocol. All measurements were performed using HBS-EP buffer (10 mM HEPES pH 7.4, 0.15 M NaCl, 3 mM EDTA, 0.005% vol/vol surfactant P20, Biacore). Antibodies at 20 nM or 50 nM in HBS-EP buffer were immobilized on the protein A/G surface and FcγRs were injected. After each cycle, the surface was regenerated by injecting glycine buffer (10 mM, pH 1.5). Data were processed by zeroing time and response before the injection of FcγR and by subtracting appropriate nonspecific signals (response of reference channel and injection of running buffer). Kinetic analyses were performed by global fitting of binding data with a 1:1 Langmuir binding model using BIAevaluation software (Biacore).
(§2) Variant antibodies were tested for their affinity to mouse or cynologous monkey FcγRs using Biacore SPR as described above. Specifically, antibodies were first immobilized on a protein A/G chip to high density, and then followed by injections of the extracellular domain of the mouse or cynologous monkey FcγR of interest. Both association and dissociation phases were tracked in real time using the Biacore technology.

mFcγRIIb = target: T3, mFcγRIIb
Procedure: as §1, §2

Row | Binder | Fold vs WT IgG1 [1] [fold] | Kd [1] [nM] | Fold vs WT IgG1 (Kd) (cynoFcγRIIb) [fold] | Fold vs WT IgG1 (Kd) (mFcγRIIb) [fold]
1 | S267A/H268D/L328Y (antibody, human IgG1, kappa, HuAM4G7 anti-CD19 IgG1 (m1) with these Fc substitutions, EU index; copies: 2 + 2) heavy: EVQLVESGGGLVKPGGSLKLSCAASGYTFTSYVMHWVRQAPGKGLEWIGYINPYNDGTKYNEKFQGRVTISSDKSISTAYMELSSLRSEDTAMYYCARGTYYYGTRVFDYWGQGTLVTVSSASTKGPSVFPLAPSSKSTSGGTAALGCLVKDYFPEPVTVSWNSGALTSGVHTFPAVLQSSGLYSLSSVVTVPSSSLGTQTYICNVNHKPSNTKVDKKVEPKSCDKTHTCPPCPAPELLGGPSVFLFPPKPKDTLMISRTPEVTCVVVDVADEDPEVKFNWYVDGVEVHNAKTKPREEQYNSTYRVVSVLTVLHQDWLNGKEYKCKVSNKAYPAPIEKTISKAKGQPREPQVYTLPPSREEMTKNQVSLTCLVKGFYPSDIAVEWESNGQPENNYKTTPPVLDSDGSFFLYSKLTVDKSRWQQGNVFSCSVMHEALHNHYTQKSLSLSPGK light: DIVMTQSPATLSLSPGERATLSCRSSKSLQNVNGNTYLYWFQQKPGQSPQLLIYRMSNLNSGVPDRFSGSGSGTEFTLTISSLEPEDFAVYYCMQHLEYPITFGAGTKLEIKRTVAAPSVFIFPPSDEQLKSGTASVVCLLNNFYPREAKVQWKVDNALQSGNSQESVTEQDSKDSTYSLSSTLTLSKADYEKHKVYACEVTHQGLSSPVTKSFNRGEC | 10.7 | 137 | 3.26 | 32.4
2 | S267A/L328Y/I332E (antibody, human IgG1, kappa, HuAM4G7 anti-CD19 IgG1 (m1) with these Fc substitutions, EU index; copies: 2 + 2) heavy: EVQLVESGGGLVKPGGSLKLSCAASGYTFTSYVMHWVRQAPGKGLEWIGYINPYNDGTKYNEKFQGRVTISSDKSISTAYMELSSLRSEDTAMYYCARGTYYYGTRVFDYWGQGTLVTVSSASTKGPSVFPLAPSSKSTSGGTAALGCLVKDYFPEPVTVSWNSGALTSGVHTFPAVLQSSGLYSLSSVVTVPSSSLGTQTYICNVNHKPSNTKVDKKVEPKSCDKTHTCPPCPAPELLGGPSVFLFPPKPKDTLMISRTPEVTCVVVDVAHEDPEVKFNWYVDGVEVHNAKTKPREEQYNSTYRVVSVLTVLHQDWLNGKEYKCKVSNKAYPAPEEKTISKAKGQPREPQVYTLPPSREEMTKNQVSLTCLVKGFYPSDIAVEWESNGQPENNYKTTPPVLDSDGSFFLYSKLTVDKSRWQQGNVFSCSVMHEALHNHYTQKSLSLSPGK light: DIVMTQSPATLSLSPGERATLSCRSSKSLQNVNGNTYLYWFQQKPGQSPQLLIYRMSNLNSGVPDRFSGSGSGTEFTLTISSLEPEDFAVYYCMQHLEYPITFGAGTKLEIKRTVAAPSVFIFPPSDEQLKSGTASVVCLLNNFYPREAKVQWKVDNALQSGNSQESVTEQDSKDSTYSLSSTLTLSKADYEKHKVYACEVTHQGLSSPVTKSFNRGEC | 13.5 | 109 | 3.65 | 2.63
3 | A327D/L328Y/I332E (antibody, human IgG1, kappa, HuAM4G7 anti-CD19 IgG1 (m1) with these Fc substitutions, EU index; copies: 2 + 2) heavy: EVQLVESGGGLVKPGGSLKLSCAASGYTFTSYVMHWVRQAPGKGLEWIGYINPYNDGTKYNEKFQGRVTISSDKSISTAYMELSSLRSEDTAMYYCARGTYYYGTRVFDYWGQGTLVTVSSASTKGPSVFPLAPSSKSTSGGTAALGCLVKDYFPEPVTVSWNSGALTSGVHTFPAVLQSSGLYSLSSVVTVPSSSLGTQTYICNVNHKPSNTKVDKKVEPKSCDKTHTCPPCPAPELLGGPSVFLFPPKPKDTLMISRTPEVTCVVVDVSHEDPEVKFNWYVDGVEVHNAKTKPREEQYNSTYRVVSVLTVLHQDWLNGKEYKCKVSNKDYPAPEEKTISKAKGQPREPQVYTLPPSREEMTKNQVSLTCLVKGFYPSDIAVEWESNGQPENNYKTTPPVLDSDGSFFLYSKLTVDKSRWQQGNVFSCSVMHEALHNHYTQKSLSLSPGK light: DIVMTQSPATLSLSPGERATLSCRSSKSLQNVNGNTYLYWFQQKPGQSPQLLIYRMSNLNSGVPDRFSGSGSGTEFTLTISSLEPEDFAVYYCMQHLEYPITFGAGTKLEIKRTVAAPSVFIFPPSDEQLKSGTASVVCLLNNFYPREAKVQWKVDNALQSGNSQESVTEQDSKDSTYSLSSTLTLSKADYEKHKVYACEVTHQGLSSPVTKSFNRGEC | 2.31 | 636 | 1.02 | 1.24
